Legend:
FGFR1 = FGFR1 (UniProt P11362); experiment: phosphorylation enrichment, bacterial display (enrichment ratio); higher = better substrate or ligand; peptides without Tyr show the background
c-Abl (mouse) = experiment: as above
EPHB2 = EPHB2 (UniProt P29323); experiment: as above
MERTK = MERTK (UniProt Q12866); experiment: as above
Fes = Fes (UniProt P07332); experiment: as above
AncSZ = experiment: as above
Jak2 = Jak2 (UniProt O60674); experiment: as above
Fyn = Fyn (UniProt P06241); experiment: as above
Chain of Fyn (P06241 whole entry, looked up): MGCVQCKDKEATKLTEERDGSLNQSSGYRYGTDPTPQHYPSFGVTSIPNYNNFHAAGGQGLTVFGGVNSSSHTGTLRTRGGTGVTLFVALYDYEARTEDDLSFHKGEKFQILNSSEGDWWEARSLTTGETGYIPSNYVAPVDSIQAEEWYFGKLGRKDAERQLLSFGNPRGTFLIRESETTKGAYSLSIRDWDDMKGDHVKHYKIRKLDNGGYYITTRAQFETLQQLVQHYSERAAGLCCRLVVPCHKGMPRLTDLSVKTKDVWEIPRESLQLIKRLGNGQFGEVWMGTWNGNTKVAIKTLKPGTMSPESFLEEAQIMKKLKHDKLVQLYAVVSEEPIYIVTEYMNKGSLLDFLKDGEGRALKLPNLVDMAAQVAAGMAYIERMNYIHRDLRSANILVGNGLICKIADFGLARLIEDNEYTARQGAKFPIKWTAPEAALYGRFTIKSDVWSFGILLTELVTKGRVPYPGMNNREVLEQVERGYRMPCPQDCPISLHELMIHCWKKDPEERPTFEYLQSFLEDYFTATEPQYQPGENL

Hck = Hck (UniProt P08631); experiment: as above
Chain of Hck (P08631 whole entry, looked up): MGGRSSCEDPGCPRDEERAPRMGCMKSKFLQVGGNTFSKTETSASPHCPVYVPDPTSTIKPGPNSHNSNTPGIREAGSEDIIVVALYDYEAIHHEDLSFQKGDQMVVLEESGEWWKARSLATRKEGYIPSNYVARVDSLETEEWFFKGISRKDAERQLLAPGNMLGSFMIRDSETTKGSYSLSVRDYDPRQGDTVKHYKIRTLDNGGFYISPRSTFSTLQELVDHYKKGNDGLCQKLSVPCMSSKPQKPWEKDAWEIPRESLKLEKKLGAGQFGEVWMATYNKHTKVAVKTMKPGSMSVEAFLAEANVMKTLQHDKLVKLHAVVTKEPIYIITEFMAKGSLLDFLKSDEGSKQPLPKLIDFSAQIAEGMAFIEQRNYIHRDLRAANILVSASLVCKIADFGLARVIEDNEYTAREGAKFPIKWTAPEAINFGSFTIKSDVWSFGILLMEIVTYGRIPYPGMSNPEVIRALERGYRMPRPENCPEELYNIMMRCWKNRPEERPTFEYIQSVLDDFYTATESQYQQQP

Fer (mouse) = experiment: as above
EPHB1 = EPHB1 (UniProt P54762); experiment: as above
FGFR3 = FGFR3 (UniProt P22607); experiment: as above
Chain of FGFR3 (P22607 whole entry, looked up): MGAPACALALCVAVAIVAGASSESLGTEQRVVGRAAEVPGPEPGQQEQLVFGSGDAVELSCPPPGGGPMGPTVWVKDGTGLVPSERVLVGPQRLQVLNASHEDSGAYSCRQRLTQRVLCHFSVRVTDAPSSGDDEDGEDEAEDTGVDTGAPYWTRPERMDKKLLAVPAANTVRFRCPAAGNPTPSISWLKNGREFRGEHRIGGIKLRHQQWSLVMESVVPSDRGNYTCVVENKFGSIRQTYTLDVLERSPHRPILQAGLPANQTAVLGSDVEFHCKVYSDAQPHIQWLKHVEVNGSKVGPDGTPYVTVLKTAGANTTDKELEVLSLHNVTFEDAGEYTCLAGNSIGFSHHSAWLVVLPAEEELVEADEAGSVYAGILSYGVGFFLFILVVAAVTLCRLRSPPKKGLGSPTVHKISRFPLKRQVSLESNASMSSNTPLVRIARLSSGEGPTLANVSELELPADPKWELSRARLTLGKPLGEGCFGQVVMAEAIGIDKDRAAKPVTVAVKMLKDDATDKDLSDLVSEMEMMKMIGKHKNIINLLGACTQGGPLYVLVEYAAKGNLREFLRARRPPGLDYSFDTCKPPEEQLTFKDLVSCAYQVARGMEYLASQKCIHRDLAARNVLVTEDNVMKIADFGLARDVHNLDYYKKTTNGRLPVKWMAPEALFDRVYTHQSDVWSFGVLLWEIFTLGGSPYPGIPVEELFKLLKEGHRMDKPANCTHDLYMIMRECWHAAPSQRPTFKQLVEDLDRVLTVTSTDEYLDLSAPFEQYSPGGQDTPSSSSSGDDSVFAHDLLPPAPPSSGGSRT

c-Src = experiment: as above
Grb2 SH2 = Grb2 SH2 (UniProt P62993); experiment: SH2 binding enrichment of the phosphorylated peptide, bacterial display (enrichment ratio); higher = better substrate or ligand; peptides without Tyr show the background
c-Src SH2 = experiment: as above
SHP2-C SH2 = experiment: as above
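Wherever SH2 binding enrichment of the phosphorylated peptide, bacterial display is given: peptide library displayed on the E. coli surface as eCPX fusions, selected cells deep-sequenced, score is each peptide's frequency after selection divided by its frequency in the input.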
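Wherever phosphorylation enrichment, bacterial display is given: 11-residue human phosphosite peptides and single-mutation variants displayed on the E. coli surface, counted by deep sequencing, each peptide's frequency after selection divided by its frequency in the unselected input library; frequency after pTyr selection over input frequency; kinase dosed for 20-30% of maximal phosphorylation in three min.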

Chain of Jak2 (O60674 whole entry, looked up): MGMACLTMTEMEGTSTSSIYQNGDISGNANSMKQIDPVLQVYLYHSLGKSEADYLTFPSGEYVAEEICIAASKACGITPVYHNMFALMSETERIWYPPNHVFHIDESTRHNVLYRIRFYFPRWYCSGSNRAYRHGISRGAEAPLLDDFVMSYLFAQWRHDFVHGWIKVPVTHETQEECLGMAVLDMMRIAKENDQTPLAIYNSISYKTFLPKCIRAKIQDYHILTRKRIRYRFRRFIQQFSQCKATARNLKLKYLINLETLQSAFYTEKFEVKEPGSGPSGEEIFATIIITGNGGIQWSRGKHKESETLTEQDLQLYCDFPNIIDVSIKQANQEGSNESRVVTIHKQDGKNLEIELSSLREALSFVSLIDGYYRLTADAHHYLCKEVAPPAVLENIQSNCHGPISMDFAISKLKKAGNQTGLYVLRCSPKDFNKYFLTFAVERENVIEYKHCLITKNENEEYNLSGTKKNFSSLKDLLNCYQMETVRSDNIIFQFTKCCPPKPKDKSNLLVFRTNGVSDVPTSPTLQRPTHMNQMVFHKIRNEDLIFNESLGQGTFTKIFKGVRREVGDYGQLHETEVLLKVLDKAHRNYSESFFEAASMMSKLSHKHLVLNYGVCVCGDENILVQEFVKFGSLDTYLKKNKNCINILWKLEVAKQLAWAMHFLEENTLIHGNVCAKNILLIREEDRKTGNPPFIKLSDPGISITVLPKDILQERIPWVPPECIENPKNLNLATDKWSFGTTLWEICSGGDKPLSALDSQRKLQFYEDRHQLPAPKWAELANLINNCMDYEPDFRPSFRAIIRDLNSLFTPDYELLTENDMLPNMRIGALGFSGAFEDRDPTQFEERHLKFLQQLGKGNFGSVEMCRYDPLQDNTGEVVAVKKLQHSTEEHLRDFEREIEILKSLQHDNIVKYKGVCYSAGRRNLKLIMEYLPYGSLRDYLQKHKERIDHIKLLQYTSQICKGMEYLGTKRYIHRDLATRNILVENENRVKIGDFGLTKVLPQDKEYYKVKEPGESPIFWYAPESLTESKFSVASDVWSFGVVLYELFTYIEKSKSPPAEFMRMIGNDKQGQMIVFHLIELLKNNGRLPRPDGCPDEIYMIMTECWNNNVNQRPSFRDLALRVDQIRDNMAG
Chain of EPHB2 (P29323 whole entry, looked up): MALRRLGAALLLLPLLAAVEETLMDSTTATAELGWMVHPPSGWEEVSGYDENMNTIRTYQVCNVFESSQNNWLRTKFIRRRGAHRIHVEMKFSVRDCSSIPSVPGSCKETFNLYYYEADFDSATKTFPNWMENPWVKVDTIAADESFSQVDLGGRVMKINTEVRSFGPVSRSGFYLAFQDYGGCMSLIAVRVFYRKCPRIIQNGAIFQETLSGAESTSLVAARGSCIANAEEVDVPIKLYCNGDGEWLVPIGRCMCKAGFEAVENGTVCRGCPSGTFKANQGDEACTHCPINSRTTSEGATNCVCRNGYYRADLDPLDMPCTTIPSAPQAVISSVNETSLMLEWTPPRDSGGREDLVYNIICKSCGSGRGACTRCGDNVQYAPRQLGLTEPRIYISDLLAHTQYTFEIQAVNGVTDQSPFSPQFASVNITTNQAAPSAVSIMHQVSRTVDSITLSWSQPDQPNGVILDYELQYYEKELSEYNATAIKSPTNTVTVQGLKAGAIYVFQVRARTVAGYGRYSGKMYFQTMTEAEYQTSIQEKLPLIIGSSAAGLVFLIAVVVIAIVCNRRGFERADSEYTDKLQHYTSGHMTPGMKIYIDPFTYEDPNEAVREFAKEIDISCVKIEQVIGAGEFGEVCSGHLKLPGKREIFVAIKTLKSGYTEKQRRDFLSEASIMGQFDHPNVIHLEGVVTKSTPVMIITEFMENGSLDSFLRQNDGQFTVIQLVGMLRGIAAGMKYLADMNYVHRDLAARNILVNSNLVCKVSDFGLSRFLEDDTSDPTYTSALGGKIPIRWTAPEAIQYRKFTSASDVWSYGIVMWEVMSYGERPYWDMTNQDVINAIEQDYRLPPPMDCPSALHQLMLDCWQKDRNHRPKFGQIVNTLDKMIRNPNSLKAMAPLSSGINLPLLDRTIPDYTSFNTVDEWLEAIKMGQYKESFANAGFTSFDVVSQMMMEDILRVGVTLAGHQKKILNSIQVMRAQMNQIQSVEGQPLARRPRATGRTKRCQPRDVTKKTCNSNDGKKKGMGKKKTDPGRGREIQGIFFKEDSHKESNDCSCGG
Chain of MERTK (Q12866 whole entry, looked up): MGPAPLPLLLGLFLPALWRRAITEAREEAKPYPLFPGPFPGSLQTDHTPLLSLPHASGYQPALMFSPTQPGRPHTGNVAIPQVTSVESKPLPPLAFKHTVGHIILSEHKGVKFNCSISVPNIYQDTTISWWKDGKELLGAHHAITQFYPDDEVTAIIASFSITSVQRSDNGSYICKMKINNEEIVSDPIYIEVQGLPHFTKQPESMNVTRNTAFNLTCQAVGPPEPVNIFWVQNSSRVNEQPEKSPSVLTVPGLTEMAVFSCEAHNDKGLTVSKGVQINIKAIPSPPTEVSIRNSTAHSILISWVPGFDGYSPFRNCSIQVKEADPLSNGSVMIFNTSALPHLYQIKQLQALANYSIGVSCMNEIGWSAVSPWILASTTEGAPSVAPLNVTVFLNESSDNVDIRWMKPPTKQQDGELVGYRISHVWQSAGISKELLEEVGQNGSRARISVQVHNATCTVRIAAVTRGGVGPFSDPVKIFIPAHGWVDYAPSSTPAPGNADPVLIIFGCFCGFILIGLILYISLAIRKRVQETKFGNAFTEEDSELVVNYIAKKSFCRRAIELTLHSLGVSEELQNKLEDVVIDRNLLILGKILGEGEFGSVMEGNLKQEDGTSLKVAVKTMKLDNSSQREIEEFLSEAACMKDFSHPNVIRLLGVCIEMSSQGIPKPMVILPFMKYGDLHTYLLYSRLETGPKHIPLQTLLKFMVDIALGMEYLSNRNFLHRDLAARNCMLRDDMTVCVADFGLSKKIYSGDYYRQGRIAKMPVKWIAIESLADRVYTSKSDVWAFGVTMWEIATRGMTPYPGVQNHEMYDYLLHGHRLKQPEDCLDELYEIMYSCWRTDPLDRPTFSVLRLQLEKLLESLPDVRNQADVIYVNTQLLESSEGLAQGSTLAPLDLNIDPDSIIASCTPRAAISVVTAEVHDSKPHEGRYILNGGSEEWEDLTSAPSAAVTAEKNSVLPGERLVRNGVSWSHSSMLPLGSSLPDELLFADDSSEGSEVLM

| Sequence | phosphorylation enrichment (FGFR1) | phosphorylation enrichment (c-Abl (mouse)) | phosphorylation enrichment (EPHB2) | phosphorylation enrichment (MERTK) | phosphorylation enrichment (Fes) | phosphorylation enrichment (AncSZ) | phosphorylation enrichment (Jak2) | phosphorylation enrichment (Fyn) | phosphorylation enrichment (Hck) | phosphorylation enrichment (Fer (mouse)) | phosphorylation enrichment (EPHB1) | phosphorylation enrichment (FGFR3) | phosphorylation enrichment (c-Src) | SH2 binding enrichment (Grb2 SH2) | SH2 binding enrichment (c-Src SH2) | SH2 binding enrichment (SHP2-C SH2) |
| --- | --- | --- | --- | --- | --- | --- | --- | --- | --- | --- | --- | --- | --- | --- | --- | --- |
| SSMIDYNPLEK [MYOC_Y479] | 0.475 | 0.663 | 0.533 | 0.463 | 0.945 | 0.971 | 1.07 | 0.596 | 0.512 | 0.44 | 0.517 | 0.595 | 0.689 | 0.744 | 0.373 | 0.641 |
| NVVQEYERVII [NPHS2_Y131_K126N] | 0.59 | 0.633 | 2.22 | 0.442 | 0.942 | 1.17 | 0.772 | 0.47 | 0.589 | 4.44 | 2.13 | 0.668 | 0.485 | 0.978 | 0.557 | 0.831 |
| LGRTRYQDVTG [MIPEP_Y510_H512D] | 0.525 | 0.799 | 0.548 | 0.722 | 0.735 | 0.899 | 0.888 | 0.586 | 0.336 | 0.563 | 0.62 | 0.665 | 0.584 | 0.986 | 1 | 0.95 |
| DPFHVYIKNRV [KCNE3_Y95_YF] | 0.455 | 0.692 | 0.464 | 0.369 | 1.19 | 1.27 | 1.08 | 0.415 | 0.437 | 0.486 | 0.604 | 0.764 | 0.31 | 1.13 | 0.604 | 0.936 |
| VAVVQYSGMGQ [COL6A1_Y878_T881M] | 0.44 | 0.62 | 0.363 | 0.524 | 0.757 | 0.554 | 0.612 | 0.439 | 0.416 | 0.407 | 0.382 | 0.506 | 0.451 | 0.763 | 0.603 | 0.927 |
| TMKSRYMELFD [BBS2_Y644_YF] | 0.482 | 0.613 | 0.437 | 0.42 | 0.914 | 0.765 | 0.71 | 0.447 | 0.48 | 0.382 | 0.523 | 0.667 | 0.418 | 0.945 | 4.89 | 0.634 |
| GTFVIYVRFGG [FLNB_Y1687_YF] | 0.52 | 0.854 | 0.49 | 0.379 | 1.18 | 1.15 | 0.711 | 0.353 | 0.433 | 0.4 | 0.392 | 0.731 | 0.465 | 1.34 | 0.782 | 0.968 |
| RLLVVYPWTKR [HBB_Y36_Q40K] | 0.694 | 0.602 | 0.678 | 0.612 | 0.829 | 0.735 | 0.475 | 0.485 | 0.547 | 0.45 | 0.418 | 0.613 | 0.583 | 0.951 | 0.447 | 0.812 |

— the supplement of paper PMC10065799, “High-throughput profiling of sequence recognition by tyrosine kinases and SH2 domains using bacterial peptide display” (eLife, 2023)
